Measurements reported in US20260210939A1, “MODIFIED OLFACTORY RECEPTORS” (GIVAUDAN SA, priority 2022, published 2026).
Read-outs that look alike come from different tables or passages of the source.

Legend:
OR7C1 = molecular target: T1, OR7C1 (Homo sapiens, UniProt O76099, D296E/G302K/M297V/R299D/T295K/V126I); assay: CRE-luciferase assay, HEK293T cells expressing OR7C1 (wild-type / modified C-terminus); type: cell-based; conditions: for % of the activation by the optimized sequence RNKEVKDALKRLLKRKCC: OR7C1 variant, 1 μM Ambermax
T1 construct: Improved functional expression of modified OR-genes containing the truncated, optimized C-terminus; expressed in transfected cells; host or cells: HEK293T stably expressing human RTP1S(V227I) and RTP2(L220R)
T1 sequence (O76099 with tags, fused parts or gaps V126I/T295K/D296E/M297V/R299D/G302K): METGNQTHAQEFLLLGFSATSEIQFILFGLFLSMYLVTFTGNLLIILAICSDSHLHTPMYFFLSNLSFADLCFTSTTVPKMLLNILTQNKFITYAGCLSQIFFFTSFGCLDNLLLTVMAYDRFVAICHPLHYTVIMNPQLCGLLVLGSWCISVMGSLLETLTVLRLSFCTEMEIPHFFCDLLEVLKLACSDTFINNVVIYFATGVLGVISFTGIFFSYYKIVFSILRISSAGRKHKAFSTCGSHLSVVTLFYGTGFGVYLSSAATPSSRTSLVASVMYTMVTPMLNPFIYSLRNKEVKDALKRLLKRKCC
Source text: To test for possible variants of the sequence […]CC (SEQ ID NO: 86) leading to similar improved functional expression, different point mutations were introduced into the first 16 amino acids of this sequence (corresponding to […], SEQ ID NO: 10) and the variants were fused after the TM7 with OR7C1. […] The test concentrations were selected to fall into the range of partial activity of the wild-type sequence.

OR7D4 = molecular target: T2, OR7D4 (Homo sapiens, UniProt Q8NG98, D296E/E302K/G299D); assay: CRE-luciferase assay, HEK cells expressing OR7D4 (wild-type / modified C-terminus); type: cell-based; conditions: OR7D4 variant, Androstenone
T2 construct: Improved functional expression of modified OR-genes containing the truncated, optimized C-terminus; expressed in transfected cells
T2 sequence (Q8NG98 with tags, fused parts or gaps D296E/G299D/E302K): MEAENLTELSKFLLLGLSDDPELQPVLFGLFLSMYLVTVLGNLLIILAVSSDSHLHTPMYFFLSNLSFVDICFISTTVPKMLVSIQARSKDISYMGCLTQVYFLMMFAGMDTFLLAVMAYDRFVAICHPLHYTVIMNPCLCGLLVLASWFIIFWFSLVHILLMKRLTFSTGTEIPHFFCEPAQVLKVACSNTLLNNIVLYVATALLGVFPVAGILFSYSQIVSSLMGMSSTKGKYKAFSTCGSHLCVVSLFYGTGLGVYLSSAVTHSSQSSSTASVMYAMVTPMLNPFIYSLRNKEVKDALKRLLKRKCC
Source text: Random permutations of the general C-terminal sequence RN[KR][EDQ][VMIL][KR]KA[LIV][KRH][KR][LI][LIF][KRG][KR][KR]CC (SEQ ID NO: 822) linked to OR7D4 were generated based on degenerate oligonucleotides for the C-terminal domain. For this experiment, the MfeI/XhoI fragment from pcDNA3.1(+)-mmLucy-FLAG-rho-OR7D4 containing the CMV promoter and the OR coding sequence was used to replace the EcoRI/SalI fragment of pRDVCCB-CMV-dCas9-VPH-2A-Blast (Cellecta, Inc., Mountain View, USA). Complementary degenerate oligonucleotides were then used to replace the coding region of the C-terminal domain of […] (between Bsu36I and NotI). Random clones were selected, sequenced and tested for a correct open reading frame. A total of 55 clones were obtained with the correct open reading frame of […] and a permutation of the general sequence RN[KR][EDQ][VMIL][KR]KA[LIV][KRH][KR][LI][LIF][KRG][KR][KR]CC (SEQ ID NO: 822) as the C-terminal domain. All the different clones were compared to the wild-type sequence by the functional assay in HEK cells with the ligand Androstenone tested in a dose-response test.

OR5B12 = molecular target: T3, OR5B12 (Homo sapiens, UniProt Q96R08, C141R); assay: CRE-luciferase assay, HEK293T cells expressing OR5B12 (wild-type / modified C-terminus); type: cell-based; conditions: OR5B12 variant
T3 construct: Improved functional expression of modified OR-genes containing the truncated, optimized C-terminus; expressed in transfected cells; host or cells: HEK293T stably expressing human RTP1S(V227I) and RTP2(L220R)
T3 sequence (Q96R08 with tags, fused parts or gaps C141R): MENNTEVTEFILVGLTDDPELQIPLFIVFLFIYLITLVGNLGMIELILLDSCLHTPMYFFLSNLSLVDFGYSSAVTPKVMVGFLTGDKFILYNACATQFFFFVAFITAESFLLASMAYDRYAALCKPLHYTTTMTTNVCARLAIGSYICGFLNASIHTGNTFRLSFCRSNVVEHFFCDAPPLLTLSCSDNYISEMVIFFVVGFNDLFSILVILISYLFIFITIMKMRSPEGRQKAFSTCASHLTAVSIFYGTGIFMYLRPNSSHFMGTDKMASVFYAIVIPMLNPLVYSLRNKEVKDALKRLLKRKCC

OR52A5 = molecular target: T4, OR52A5 (Homo sapiens, UniProt Q9H2C5); type: cell-based
T4 construct: Improved functional expression of modified OR-genes containing the truncated, optimized C-terminus; expressed in transfected cells; host or cells: HEK293T stably expressing human RTP1S(V227I) and RTP2(L220R)
T4 sequence (Q9H2C5 with tags, fused parts or gaps): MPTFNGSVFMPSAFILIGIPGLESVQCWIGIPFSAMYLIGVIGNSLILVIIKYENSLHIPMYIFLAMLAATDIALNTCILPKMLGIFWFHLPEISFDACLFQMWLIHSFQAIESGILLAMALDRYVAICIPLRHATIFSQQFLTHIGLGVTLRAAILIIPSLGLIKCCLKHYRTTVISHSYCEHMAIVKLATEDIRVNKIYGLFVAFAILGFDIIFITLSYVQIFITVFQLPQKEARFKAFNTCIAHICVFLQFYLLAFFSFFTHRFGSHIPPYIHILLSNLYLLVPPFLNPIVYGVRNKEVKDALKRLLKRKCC
Method: Further variants of the improved C-terminal domain sequence […] (SEQ ID NO: 86) and falling within the general sequence RN[KR][EDQ][VMIL][KR]xA[LIV][KRH][KR][LI][LIF][KRG][KR][KR] (SEQ ID NO: 1) with further amino acids at the C-terminal end (CC) were tested on the class I receptor OR52A5 activated by 4-ethyloctanoic acid. […] This activation is further improved by either replacing amino acid position 4-6 with the sequence QIR or by adding the terminal sequence RRR.

OR5A2 = molecular target: T5, OR5A2 (Homo sapiens, UniProt Q8NGI9); assay: CRE-luciferase assay, HEK293T cells expressing OR5A2 (wild-type / modified C-terminus); type: cell-based; conditions: OR5A2 variant
T5 construct: Improved functional expression of modified OR-genes containing the truncated, optimized C-terminus; expressed in transfected cells; host or cells: HEK293T with stably integrated human RTP1S(V227I) and RTP2(L220R)
T5 sequence (Q8NGI9 with tags, fused parts or gaps): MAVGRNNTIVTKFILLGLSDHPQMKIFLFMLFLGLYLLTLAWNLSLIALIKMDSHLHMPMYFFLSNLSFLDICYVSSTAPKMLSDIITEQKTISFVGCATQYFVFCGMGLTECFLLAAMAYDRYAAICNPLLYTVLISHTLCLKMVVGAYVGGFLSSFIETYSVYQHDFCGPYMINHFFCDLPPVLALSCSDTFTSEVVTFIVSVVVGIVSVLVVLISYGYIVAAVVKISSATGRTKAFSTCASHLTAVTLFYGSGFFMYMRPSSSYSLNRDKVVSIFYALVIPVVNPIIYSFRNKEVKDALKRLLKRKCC

OR2T4 = molecular target: T6, OR2T4 (Homo sapiens, UniProt Q8NH00, D328E/G331D/M330K); conditions: OR2T4 variant
T6 sequence (Q8NH00 with tags, fused parts or gaps D328E/M330K/G331D): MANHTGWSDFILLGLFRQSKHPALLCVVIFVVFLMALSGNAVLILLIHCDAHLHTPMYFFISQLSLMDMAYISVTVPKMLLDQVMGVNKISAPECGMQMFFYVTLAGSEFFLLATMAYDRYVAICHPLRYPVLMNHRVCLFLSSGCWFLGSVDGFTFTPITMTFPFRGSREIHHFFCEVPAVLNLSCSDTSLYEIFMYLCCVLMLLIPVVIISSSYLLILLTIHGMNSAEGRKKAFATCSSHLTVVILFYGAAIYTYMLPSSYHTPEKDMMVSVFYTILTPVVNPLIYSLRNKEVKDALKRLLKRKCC

[1] = 4 μM 2-methyl-3-tetrahydrofuranethiol
[2] = 8 μM 2-methyl-3-tetrahydrofuranethiol

| luciferase induction (OR7C1; 1 μM of Ambermax) | % of the activation by the optimized sequence RNKEVKDALKRLLKRKCC (OR7C1) | EC2 (concentration for 2-fold luciferase induction) (OR7D4) | EC2 Fold-improvement vs. wild-type (OR7D4) | % of the activation by the optimized sequence RNKEVKDALKRLLKRKCC (OR5B12; 31 μM Hedione HC) | % of the activation by the optimized sequence RNKEVKDALKRLLKRKCC (OR5B12; 62.5 μM Hedione HC) | fold-induction of luciferase (OR5A2; muscone 0.01 μM) | fold-induction of luciferase (OR5A2; muscone 0.03 μM) | fold-induction of luciferase (OR5A2; muscone 0.10 μM) | fold-induction of luciferase (OR5A2; muscone 0.32 μM) | fold-induction of luciferase (OR5A2; muscone 1.00 μM) | fold-induction of luciferase (OR5A2; muscone 3.16 μM) | fold-induction of luciferase (OR5A2; muscone 10.00 μM) | % of the activation by the optimized sequence RNKEVKDALKRLLKRKCC (OR2T4; [1]) | % of the activation by the optimized sequence RNKEVKDALKRLLKRKCC (OR2T4; [2]) | % of the activation by the optimized sequence RNKEVKDALKRLLKRKCC (OR2T4; 10 μM Cyclopentanethiol, 30 μM copper) | % of the activation by the optimized sequence RNKEVKDALKRLLKRKCC (OR2T4; 31 μM Cyclopentanethiol, 30 μM copper) | Substance | fold induction of luciferase by 4-ethyloctanoic acid (OR52A5; 1 µM) | fold induction of luciferase by 4-ethyloctanoic acid (OR52A5; 10 µM) | fold induction of luciferase by 4-ethyloctanoic acid (OR52A5; 31 µM) |
| --- | --- | --- | --- | --- | --- | --- | --- | --- | --- | --- | --- | --- | --- | --- | --- | --- | --- | --- | --- | --- |
| around 10 fold | 100% | 0.007 µM | 249.44 | 100% | 100% | 1.07 | 1.48 | 3.57 | 10.02 | 21.98 | 31.84 | 33.98 | 100% | 100% | 100% | 100% | SEQ ID NO: 86: optimized C-terminal sequence fused after TM7 of the OR of the assay (RNKEVKDALKRLLKRKCC; source 1..18: note = C-terminal domain sequence) | 2.21 | 3.53 | 7.64 |
|  | 310.7% |  |  | 435.4% | 282.5% | 0.96 | 1.39 | 3.49 | 9.33 | 19.44 | 27.31 | 30.34 | 96.2% | 88.2% |  |  | SEQ ID NO: 117 (RNKEVKKAIKRLFKRKCC; source 1..18: note = C-terminal domain sequence) |  |  |  |
|  |  |  |  | 250.7% | 233.4% |  |  |  |  |  |  |  |  |  |  |  | SEQ ID NO: 156 (RNKEVKDALKRLLKRKCCRRR; source 1..21: note = C-terminal domain sequence) | 9.39 | 14.90 | 22.00 |
|  |  |  |  |  |  |  |  |  |  |  |  |  |  |  |  |  | SEQ ID NO: 740 (RNKQIRDALKRLLKRKCC; source 1..18: note = C-terminal domain sequence) | 10.09 | 12.30 | 19.31 |
